The source of these data is the supplement of paper PMC9233669.

One series deals with biotinyl-Ile-oxazolone. As to the kind of experiment: self-aminoacylation, catalytic enhancement (BIO) (fold over background); higher = more active; k-Seq, kA / k0A0; sequences stand for … in GGGAAUGGAUCCACAUCUACGAAUUC…UUCACUGCAGACUUGACGAAGCUG
The gist of the method:
(§1)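 Mutagenized RNA pools (0.43 μM; 21-nt variable region) were treated with 2–1250 μM of each biotinyl-aminoacyl-oxazolone. Conditions were 50 μL HEPES/NaCl/KCl/MgCl2/CaCl2 buffer, 5% acetonitrile, pH 6.9–7.0, room temperature, 90 minutes. Catalytic enhancement, the median kA relative to the uncatalyzed rate, was derived from streptavidin capture, qPCR and Illumina sequencing.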

The subject of a further series is biotinyl-Met-oxazolone. As to the kind of experiment: self-aminoacylation, catalytic enhancement (BMO) (fold over background); higher = more active; k-Seq, kA / k0A0; sequences stand for … in GGGAAUGGAUCCACAUCUACGAAUUC…UUCACUGCAGACUUGACGAAGCUG
The gist of the method:
as §1

The subject of a further series is biotinyl-Val-oxazolone. As to the kind of experiment: self-aminoacylation, catalytic enhancement (BVO) (fold over background); higher = more active; k-Seq, kA / k0A0; sequences stand for … in GGGAAUGGAUCCACAUCUACGAAUUC…UUCACUGCAGACUUGACGAAGCUG
The gist of the method:
as §1

The next series has as its system biotinyl-Trp-oxazolone. Nature of the series: self-aminoacylation, catalytic enhancement (BWO) (fold over background); higher = more active; k-Seq, kA / k0A0; sequences stand for … in GGGAAUGGAUCCACAUCUACGAAUUC…UUCACUGCAGACUUGACGAAGCUG
The method, boiled down:
as §1

In the next series the test system is biotinyl-Phe-oxazolone. Nature of the series: self-aminoacylation, catalytic enhancement (BFO) (fold over background); higher = more active; k-Seq, kA / k0A0; sequences stand for … in GGGAAUGGAUCCACAUCUACGAAUUC…UUCACUGCAGACUUGACGAAGCUG
The gist of the method:
as §1

For another series, the system named is biotinyl-Leu-oxazolone. Nature of the series: self-aminoacylation, catalytic enhancement (BLO) (fold over background); higher = more active; k-Seq, kA / k0A0; sequences stand for … in GGGAAUGGAUCCACAUCUACGAAUUC…UUCACUGCAGACUUGACGAAGCUG
The gist of the method: as §1

This sample holds only a part of the variants without activity.

Consider “CCACUUAAAACAAUCGGUCUG [Fam1A.1 aminoacylation ribozyme variant]”, for which the self-aminoacylation turned out to be 1.11 in the series with biotinyl-Ile-oxazolone; 1.44 with biotinyl-Met-oxazolone; 1.13 in the series with biotinyl-Val-oxazolone; 1.12 with biotinyl-Trp-oxazolone; 0.816 with biotinyl-Phe-oxazolone; 1.05 with biotinyl-Leu-oxazolone.
For the sequence “CCAGUCUUCAAGCAAUCGGUC [Fam1B.1 aminoacylation ribozyme variant]”, the self-aminoacylation worked out at 1.67 in the series on biotinyl-Ile-oxazolone; 1.79 with biotinyl-Met-oxazolone; 1.63 in the series with biotinyl-Val-oxazolone; 38.6 in the series with biotinyl-Trp-oxazolone; 68.5 in the series with biotinyl-Phe-oxazolone; 2.8 in the series on biotinyl-Leu-oxazolone.
As to “GUUCACCUUGGUCAUCGGGUG [Fam2.2 aminoacylation ribozyme variant]”, the self-aminoacylation in the series on biotinyl-Ile-oxazolone was 3.45; in the series with biotinyl-Met-oxazolone it was 5.14; with biotinyl-Val-oxazolone, 4.34; in the series on biotinyl-Trp-oxazolone it was 5.93; in the series on biotinyl-Phe-oxazolone, 37.7; in the series with biotinyl-Leu-oxazolone, 5.74.
As to “AUUCACAAAGGUCAUCGGGUG [Fam2.2 aminoacylation ribozyme variant]”, the self-aminoacylation was found to be 5.84 in the series on biotinyl-Ile-oxazolone; 9.76 with biotinyl-Met-oxazolone; 5.83 in the series on biotinyl-Val-oxazolone; 8.7 with biotinyl-Trp-oxazolone; 84.3 in the series with biotinyl-Phe-oxazolone; 12.2 with biotinyl-Leu-oxazolone.
As to “CUACUUCAAACAAUCGGACUC [Fam1A.1 aminoacylation ribozyme variant]”, the self-aminoacylation in the series on biotinyl-Ile-oxazolone was 0.675; with biotinyl-Met-oxazolone, 0.563; in the series with biotinyl-Val-oxazolone, 0.7; in the series on biotinyl-Trp-oxazolone it was 2.57; with biotinyl-Phe-oxazolone, 5.7; in the series on biotinyl-Leu-oxazolone, 0.624.
With “CCAAACUUCAAGCAAUAGGUC [Fam1B.1 aminoacylation ribozyme variant]”, the self-aminoacylation with biotinyl-Ile-oxazolone worked out at 0.605; with biotinyl-Met-oxazolone, 0.574; with biotinyl-Val-oxazolone, 0.602; with biotinyl-Trp-oxazolone, 0.458; in the series with biotinyl-Phe-oxazolone, 0.911; in the series with biotinyl-Leu-oxazolone, 0.527.
Take “AAGUUGGCUAAUAGUCGCAAU [Fam3.1 aminoacylation ribozyme variant]”: the self-aminoacylation in the series on biotinyl-Ile-oxazolone worked out at 2.15; with biotinyl-Met-oxazolone, 1.32; with biotinyl-Val-oxazolone, 1.7; in the series on biotinyl-Trp-oxazolone, 2.93; in the series on biotinyl-Phe-oxazolone, 2.72; in the series on biotinyl-Leu-oxazolone it was 1.71.
Consider “AUCCACCUAGGUCAUCGAGUG [Fam2.2 aminoacylation ribozyme variant]”, for which the self-aminoacylation worked out at 6.55 in the series with biotinyl-Ile-oxazolone; 7.89 with biotinyl-Met-oxazolone; 5.17 in the series on biotinyl-Val-oxazolone; 5.78 in the series with biotinyl-Trp-oxazolone; 17.4 with biotinyl-Phe-oxazolone; 10.3 in the series on biotinyl-Leu-oxazolone.
Regarding “AUUACCCUUGUCAUCGAGUGU [Fam2.1 aminoacylation ribozyme variant]”, the self-aminoacylation in the series with biotinyl-Ile-oxazolone stood at 1.71; in the series with biotinyl-Met-oxazolone, 2.89; in the series with biotinyl-Val-oxazolone it was 2.03; in the series with biotinyl-Trp-oxazolone, 3.65; with biotinyl-Phe-oxazolone, 8.43; with biotinyl-Leu-oxazolone, 3.08.
Take “AAUCACCUAGGACAUCGGGUG [Fam2.2 aminoacylation ribozyme variant]”: the self-aminoacylation came out at 3.91 in the series with biotinyl-Ile-oxazolone; 4.09 in the series with biotinyl-Met-oxazolone; 3.32 in the series on biotinyl-Val-oxazolone; 5.94 with biotinyl-Trp-oxazolone; 19.1 in the series on biotinyl-Phe-oxazolone; 3.27 in the series with biotinyl-Leu-oxazolone.
Regarding “AUUCACCUAGGUCAUAGGGUA [Fam2.2 aminoacylation ribozyme variant]”, the self-aminoacylation in the series with biotinyl-Ile-oxazolone worked out at 1.21; in the series on biotinyl-Met-oxazolone it was 0.923; in the series with biotinyl-Val-oxazolone, 1.16; in the series with biotinyl-Trp-oxazolone, 1.67; with biotinyl-Phe-oxazolone, 0.412; in the series with biotinyl-Leu-oxazolone it was 0.856.
Take “ACACACUUCAAGCAAUAGGUC [Fam1B.1 aminoacylation ribozyme variant]”: the self-aminoacylation stood at 0.894 in the series on biotinyl-Ile-oxazolone; 0.828 in the series with biotinyl-Met-oxazolone; 0.976 with biotinyl-Val-oxazolone; 0.901 with biotinyl-Trp-oxazolone; 1.57 in the series on biotinyl-Phe-oxazolone; 0.737 with biotinyl-Leu-oxazolone.
In the case of “AAGUUUGCCAAUAGUUGCAAG [Fam3.1 aminoacylation ribozyme variant]”, the self-aminoacylation in the series with biotinyl-Ile-oxazolone amounted to 0.948; with biotinyl-Met-oxazolone, 0.895; in the series on biotinyl-Val-oxazolone, 0.866; in the series on biotinyl-Trp-oxazolone, 0.808; in the series with biotinyl-Phe-oxazolone, 1.39; in the series on biotinyl-Leu-oxazolone it was 0.958.
For “AAGUGUGCUAAUAGUAGCAAG [Fam3.1 aminoacylation ribozyme variant]”, the self-aminoacylation in the series on biotinyl-Ile-oxazolone was 1.27; with biotinyl-Met-oxazolone it was 1.02; in the series with biotinyl-Val-oxazolone, 1.33; with biotinyl-Trp-oxazolone, 1.6; in the series on biotinyl-Phe-oxazolone, 1.65; in the series with biotinyl-Leu-oxazolone, 1.21.
Consider “CCUCACUUCCAGCAAUCGGUC [Fam1B.1 aminoacylation ribozyme variant]”, for which the self-aminoacylation was determined as 1.05 in the series with biotinyl-Ile-oxazolone; 0.651 with biotinyl-Met-oxazolone; 1.06 in the series with biotinyl-Val-oxazolone; 0.965 in the series on biotinyl-Trp-oxazolone; 1.23 in the series on biotinyl-Phe-oxazolone; 0.861 with biotinyl-Leu-oxazolone.
“AUUAACCUAGGUCAUCGGCUG [Fam2.2 aminoacylation ribozyme variant]”: the self-aminoacylation with biotinyl-Ile-oxazolone was determined as 1.35; in the series on biotinyl-Met-oxazolone, 1.49; in the series with biotinyl-Val-oxazolone it was 1.59; in the series on biotinyl-Trp-oxazolone, 1.57; in the series with biotinyl-Phe-oxazolone it was 4.37; in the series with biotinyl-Leu-oxazolone it was 1.35.
With “AAGUUUGCCAAUAGUCGCGAG [Fam3.1 aminoacylation ribozyme variant]”, the self-aminoacylation was found to be 1.61 in the series on biotinyl-Ile-oxazolone; 1.96 with biotinyl-Met-oxazolone; 2.09 in the series with biotinyl-Val-oxazolone; 3.77 in the series with biotinyl-Trp-oxazolone; 11.6 in the series on biotinyl-Phe-oxazolone; 2.25 in the series with biotinyl-Leu-oxazolone.
Regarding “CCACACUACAAGCGAUCGGUC [Fam1B.1 aminoacylation ribozyme variant]”, the self-aminoacylation turned out to be 1.09 in the series with biotinyl-Ile-oxazolone; 0.977 in the series on biotinyl-Met-oxazolone; 1.29 in the series on biotinyl-Val-oxazolone; 1.03 with biotinyl-Trp-oxazolone; 0.866 in the series with biotinyl-Phe-oxazolone; 1.24 in the series on biotinyl-Leu-oxazolone.
With “AUUCAGCUGGGUCAUCGGGUG [Fam2.2 aminoacylation ribozyme variant]”, the self-aminoacylation with biotinyl-Ile-oxazolone worked out at 3.79; with biotinyl-Met-oxazolone, 5.66; in the series with biotinyl-Val-oxazolone, 4.76; with biotinyl-Trp-oxazolone, 4.72; in the series with biotinyl-Phe-oxazolone, 37.9; in the series with biotinyl-Leu-oxazolone it was 5.07.
In the case of “GGUACCCUGGUCAUCGAGUGA [Fam2.1 aminoacylation ribozyme variant]”, the self-aminoacylation in the series on biotinyl-Ile-oxazolone was found to be 6.93; in the series on biotinyl-Met-oxazolone it was 11.2; in the series with biotinyl-Val-oxazolone, 6.65; with biotinyl-Trp-oxazolone, 16.4; in the series on biotinyl-Phe-oxazolone it was 38.7; in the series on biotinyl-Leu-oxazolone it was 12.6.
Take “CCACACUUGAAGCAAUCGGGC [Fam1B.1 aminoacylation ribozyme variant]”: the self-aminoacylation is 1.55 in the series on biotinyl-Ile-oxazolone; 1.34 in the series on biotinyl-Met-oxazolone; 2.63 with biotinyl-Val-oxazolone; 2.26 in the series with biotinyl-Trp-oxazolone; 5.71 with biotinyl-Phe-oxazolone; 1.57 with biotinyl-Leu-oxazolone.
